Results on 1 substance are retold here after paper PMC7476095.

In assay [1] the target is KU80 (UniProt P13010). As to the kind of experiment: anti-FLAG co-IP, KU80 blot. The following applies: reference: wild type, IR 6 Gy; sites S214.
Assay [2] has as its target KU80 (UniProt P13010). As to the kind of experiment: anti-KU80 co-IP, MAD1 blot. The following applies: reference: wild type, IR 6 Gy; sites S214.

In the case of “MAD1 (mitotic arrest-deficient protein 1) (from UniProt Q9Y6D9) S214A, IR 6 Gy”, the “binding against the reference” value with KU80 [1] and with KU80 [2] was “weaker” throughout.
